# B1: ΔPlySs1: truncated PlySs1 lysin with N-terminal enzymatic and central binding domains, N-terminal 254 amino acids, SEQ ID NO:2 (protein, listed as Streptococcus suis)
# chain: MTINLETSIRWMSDRVGKVSYSMDYRNGPNSYDCSSAVYYALMAGGAISAGWAVNTEYMHDWLIRNGYVLVAENKPFNAQRHDVCILGKRGYSSGAGGHVVIFVDNVNVIHCNYARNGISIDNYNQVHRGMYYYLYRPANQPSISNKSLDQLVKETLAGVHGNGDTRKASLGSQYEAVMAVINGKASASEKSDEELAREVLAGKHGAGEDRKRSLGPRYEPVQAKVNELLKAKEKPSETAKNEPQTVQFKEDGDL
# Legend:
# Test in all cases: ΔPlySs1 OD600 lysis, 1 hr
# Format in all cases: cell-based
# E. faecalis V583 = test system: E. faecalis V583
# [1] = test system: Group E streptococci K131
# S. sobrinus 6715 = test system: S. sobrinus 6715
# B. cereus 14579 = test system: B. cereus 14579
molecule,measurement,setting,value
B1,1-hour treated/untreated OD600-ratio,E. faecalis V583; 6.5 μg/ml,0.98
same,1-hour treated/untreated OD600-ratio,E. faecalis V583; 13 μg/ml,0.93
same,1-hour treated/untreated OD600-ratio,E. faecalis V583; 30 μg/ml,0.84
same,1-hour treated/untreated OD600-ratio,E. faecalis V583; 65 μg/ml,0.71
same,1-hour treated/untreated OD600-ratio,E. faecalis V583; 130 μg/ml,0.52
same,1-hour treated/untreated OD600-ratio,[1]; 6.5 μg/ml,0.69
same,1-hour treated/untreated OD600-ratio,[1]; 13 μg/ml,0.50
same,1-hour treated/untreated OD600-ratio,[1]; 30 μg/ml,0.33
same,1-hour treated/untreated OD600-ratio,[1]; 65 μg/ml,0.22
same,1-hour treated/untreated OD600-ratio,[1]; 130 μg/ml,0.15
same,1-hour treated/untreated OD600-ratio,S. sobrinus 6715; 6.5 μg/ml,0.64
same,1-hour treated/untreated OD600-ratio,S. sobrinus 6715; 13 μg/ml,0.48
same,1-hour treated/untreated OD600-ratio,S. sobrinus 6715; 30 μg/ml,0.39
same,1-hour treated/untreated OD600-ratio,S. sobrinus 6715; 65 μg/ml,0.32
same,1-hour treated/untreated OD600-ratio,S. sobrinus 6715; 130 μg/ml,0.23
same,1-hour treated/untreated OD600-ratio,B. cereus 14579; 6.5 μg/ml,0.93
same,1-hour treated/untreated OD600-ratio,B. cereus 14579; 13 μg/ml,0.92
same,1-hour treated/untreated OD600-ratio,B. cereus 14579; 30 μg/ml,0.86
same,1-hour treated/untreated OD600-ratio,B. cereus 14579; 65 μg/ml,0.90
same,1-hour treated/untreated OD600-ratio,B. cereus 14579; 130 μg/ml,0.86
